# How the values were obtained:
# [1] = target: human FcR I and FcR II on cells; assay: 125I-human IgG on U937 cells in the absence of inhibitor
# human CD3 complex [2] = target: T1, human CD3 complex (human, UniProt P07766 23-207); assay: competition against FITC-mOKT3 tracer on human PBMC, flow cytometry; affinity calculated from the competitor concentration at half-maximal tracer binding (FIG. 3A)
# T1 construct: whole, on cells; In all assays the target stood on cells as the whole TCR/CD3 complex; also called CD3 antigen; TCR complex
# [3] = target: human FcR I and FcR II on cells; assay: competitive inhibition of PE-murine IgG2a or 125I-human IgG binding to U937 cells
# human CD3 complex [4] = target: T1, human CD3 complex; assay: competition against FITC-mOKT3 tracer on human PBMC, flow cytometry; affinity calculated from the competitor concentration at half-maximal tracer binding (FIG. 3B)
molecule,measurement,setting,value
125I-labelled human IgG (antibody),maximum binding,[1],2750 cpm
same,maximum binding as percent of the total radioactivity added,[1],15%
"gOKT3-5 (antibody, human IgG4, V domains shown, Humanized OKT3, human IgG4/kappa; also called gLC/gHA; gOKT3-5(γ4); not shown: human IgG4 heavy chain constant region; human kappa light chain constant region) VH: QVQLVQSGGGVVQPGRSLRLSCKASGYTFTRYTMHWVRQAPGKGLEWIGYINPSRGYTNYNQKVKDRFTISTDKSKSTAFLQMDSLRPEDTAVYYCARYYDDHYCLDYWGQGTPVTVSS VL: DIQMTQSPSSLSASVGDRVTITCSASSSVSYMNWYQQTPGKAPKRWIYDTSKLASGVPSRFSGSGSGTDYTFTISSLQPEDIATYYCQQWSSNPFTFGQGTKLQITR",Ka,human CD3 complex [2],1.1e+09 M⁻¹
same,"fold higher concentration for the same inhibition, against murine OKT3",[3],10 fold
"gOKT3-7(γ4) (antibody, V domains shown) VH: QVQLVQSGGGVVQPGRSLRLSCKASGYTFTRYTMHWVRQAPGKGLEWIGYINPSRGYTNYNQKVKDRFTISRDNSKNTAFLQMDSLRPEDTGVYFCARYYDDHYCLDYWGQGTPVTVSS VL: DIQMTQSPSSLSASVGDRVTITCSASSSVSYMNWYQQTPGKAPKRWIYDTSKLASGVPSRFSGSGSGTDYTFTISSLQPEDIATYYCQQWSSNPFTFGQGTKLQITR",Ka,human CD3 complex [4],1.4e+09 M⁻¹

# — US20030108548A1 (TOLERANCE THERAPEUTICS, published 2003)
